Measured values as given in US12699101B2, “Maximizing hydrophobic peptide recovery using a mass spectrometry compatible surfactant” (Regeneron Pharmaceuticals, Inc., priority 2022, dated 2026).
Where no end group is shown, it is not given here.

Test: PRM target quantification of synthetic mAb peptide standards diluted with DDM, FA or cell digest matrix
Format: physicochemical
Conditions: 10 fmol/μl peptide mixture, triplicate; for Ratio of Average Peak Area DDM Diluted/FA Diluted: 0.015% DDM vs 0.1% FA (control); for Ratio of Average Peak Area Matrix Diluted/FA Diluted: complex HeLa cell lysate digest matrix vs 0.1% FA (control)
Procedure: HeLa cell lysate protein digests were diluted to 0.05 ng/μL by 0.1% FA or 0.015% DDM solution, and 0.2 ng (4 μL) was injected onto the LC-MS to simulate single cell sample analysis. Sixteen synthetic peptides from a mAb's constant region and CDR were diluted and mixed to a final concentration of 10 fmol/μL by 0.1% FA, 0.015% DDM solution or complex cell digest matrix. In reconstitution experiments, 20 μL of 500 fmol/μL BSA digests and 200 ng/μL HeLa digests were aliquoted into vials and dried in vacuo. Dried samples were reconstituted by 0.1% FA or 0.015% DDM solution. One picomole BSA digests and 100 ng HeLa digests were loaded onto the column for nanoLC-MS/MS analysis.
PRM target quantification was performed on an Orbitrap Exploris 480 mass spectrometer equipped with an UltiMate 3000 RSLCnano system and 75 μm ID×25 cm C18 column (CoAnn Technologies, 360 μm OD). A short gradient with a flow rate of 0.3 μL/min was set up as follows: 5% B at 0 min, 8% B at 3 min, 40% B at 20 min, and 95% B from 30-35 min. The m/z of the most intense surrogate peptide peak was selected for PRM analysis with 5 minutes windows. MS/MS spectra were acquired using HCD with a normalized collision energy of 30% at a resolution of 30K (m/z 200) and a maximum injection time of 100 ms.
Database searches for protein identification were performed using SEQUEST and Mascot embedded into Proteome Discoverer 2.2 (Thermo Fisher Scientific). The human UniProt target-decoy protein database including common contaminants was used for HeLa sample database searches. Precursor ion mass tolerance was set to 20 ppm and fragment ion mass tolerance was set to 0.02 Da. Trypsin was specified as the digestion enzyme during the database search with one missed cleavage allowed. Methionine oxidation (+16 Da) was selected as a variable modification and cysteine carbamidomethylation was chosen as a fixed modification for the normal (alkylated) digests. False discovery rates (FDRs) were set to 1% for peptide identification and 5% for protein identification. Peptide mapping and BSA sample data were analyzed using Protein Metrics Byonic™ (version 3.11.3) by searching the raw files against the mAb or BSA protein sequence. All peptide quantification was executed using Skyline Daily software (University of Washington, WA) by extracting the MS' peak area of all detected charge states. The three most intense fragment peaks free of interference were selected for PRM target quantification. Empower (Milford, MA) was employed to extract UV chromatogram peak areas. The peptide hydrophobicity was calculated using the Peptide Synthesis and Proteotypic Peptide Analyzing Tool from ThermoFisher Scientific (Waltham, MA). GraphPad Prism 9.0.2 (San Diego, CA) was used for correlation analysis and p-value calculation.
In order to optimize a method for characterizing peptides for PK studies, sixteen peptides from different mAb molecules, including 13 CDR peptides and three constant region peptides, were selected and synthesized. Information for the synthetic peptide standards, including stock concentration, dilution, hydrophobicity index value, and retention time is shown in Table 1. All synthetic peptide standards were diluted and mixed as a single peptide mixture with a final concentration of 10 fmol/μl using either a DDM solution, formic acid solution (control) or complex HeLa cell lysate digest matrix. PRM acquisition was then used to quantify the peak area of these 16 target peptides and compare results between different samples. Detailed PRM setting information is listed in Table 2 including m/z value and charge states of each target peptide. Each sample was analyzed in triplicate, and average peak areas for each peptide from the DDM prepared samples and matrix prepared samples were compared with the control samples.

Substance: TNYLTHR [synthetic mAb CDR peptide standard]
- Ratio of Average Peak Area DDM Diluted/FA Diluted: 1.7
- Ratio of Average Peak Area Matrix Diluted/FA Diluted: 0.4

Substance: GLEWVAVISYDGSNK [synthetic mAb CDR peptide standard]
- Ratio of Average Peak Area DDM Diluted/FA Diluted: 10.3
- Ratio of Average Peak Area Matrix Diluted/FA Diluted: 4.7

Substance: VVSVLTVLHQDWLNGK [synthetic mAb constant region peptide standard]
- Ratio of Average Peak Area DDM Diluted/FA Diluted: 12.1
- Ratio of Average Peak Area Matrix Diluted/FA Diluted: 33.2

Substance: LSCAASGFTFSNYAMYWVR [synthetic mAb CDR peptide standard]
- Ratio of Average Peak Area DDM Diluted/FA Diluted: 29.4
- Ratio of Average Peak Area Matrix Diluted/FA Diluted: 9.2

Substance: LLIYAASNLETGVPSR (also: Arg16 stable isotope labeled, +10 Da) [synthetic mAb CDR peptide standard]
- Ratio of Average Peak Area DDM Diluted/FA Diluted: 5.5
- Ratio of Average Peak Area Matrix Diluted/FA Diluted: 2.7

Substance: DIATYYCQQH [synthetic mAb CDR peptide standard]
- Ratio of Average Peak Area DDM Diluted/FA Diluted: 1.1
- Ratio of Average Peak Area Matrix Diluted/FA Diluted: 1.4

Substance: NQVSLTCLVK [synthetic mAb constant region peptide standard]
- Ratio of Average Peak Area DDM Diluted/FA Diluted: 0.7
- Ratio of Average Peak Area Matrix Diluted/FA Diluted: 1.1

Substance: LMIYDVSK [synthetic mAb CDR peptide standard]
- Ratio of Average Peak Area DDM Diluted/FA Diluted: 1.1
- Ratio of Average Peak Area Matrix Diluted/FA Diluted: 1.3

Substance: DNSLTAPYVFGTGTK [synthetic mAb CDR peptide standard]
- Ratio of Average Peak Area DDM Diluted/FA Diluted: 1.4
- Ratio of Average Peak Area Matrix Diluted/FA Diluted: 1.1

Substance: VTISCTGSSSNIGTHY [synthetic mAb CDR peptide standard]
- Ratio of Average Peak Area DDM Diluted/FA Diluted: 1.1
- Ratio of Average Peak Area Matrix Diluted/FA Diluted: 1.4

Substance: LSCAASGITFSNAWMSWVR [synthetic mAb CDR peptide standard]
- Ratio of Average Peak Area DDM Diluted/FA Diluted: 37.9
- Ratio of Average Peak Area Matrix Diluted/FA Diluted: 16.9

Substance: DWNQNNWF [synthetic mAb CDR peptide standard]
- Ratio of Average Peak Area DDM Diluted/FA Diluted: 2.4
- Ratio of Average Peak Area Matrix Diluted/FA Diluted: 3.0

Substance: DTAVYYCASGS [synthetic mAb CDR peptide standard]
- Ratio of Average Peak Area DDM Diluted/FA Diluted: 0.9
- Ratio of Average Peak Area Matrix Diluted/FA Diluted: 0.6

Substance: TNYLKPTHQTNTIIDVVLSPSH [synthetic mAb constant region peptide standard]
- Ratio of Average Peak Area DDM Diluted/FA Diluted: 18.4
- Ratio of Average Peak Area Matrix Diluted/FA Diluted: 32.1

Substance: LLIYDASNLK [synthetic mAb CDR peptide standard]
- Ratio of Average Peak Area DDM Diluted/FA Diluted: 1.2
- Ratio of Average Peak Area Matrix Diluted/FA Diluted: 1.4
